Results published in PMC4447340.

Molecular target: Cyclophilin J (human) (UniProt Q9H2H8)
UniProt Q9H2H8, sequence (Q9H2H8 whole entry): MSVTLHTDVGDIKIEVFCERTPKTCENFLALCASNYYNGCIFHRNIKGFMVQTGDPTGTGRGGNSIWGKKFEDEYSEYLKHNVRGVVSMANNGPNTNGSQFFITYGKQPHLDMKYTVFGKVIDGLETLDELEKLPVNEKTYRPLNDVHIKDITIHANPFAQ

inhibition of the PPIase activity of CYPJ (chymotrypsin-coupled assay, 13.1 μM CYPJ, 1-16 μM CsA): 12 µM
Substance: Cyclosporin A (peptide)
